The target of this assay is Cav3.1-GFP wild type (human) (UniProt O43497).
UniProt O43497, sequence (O43497 whole entry): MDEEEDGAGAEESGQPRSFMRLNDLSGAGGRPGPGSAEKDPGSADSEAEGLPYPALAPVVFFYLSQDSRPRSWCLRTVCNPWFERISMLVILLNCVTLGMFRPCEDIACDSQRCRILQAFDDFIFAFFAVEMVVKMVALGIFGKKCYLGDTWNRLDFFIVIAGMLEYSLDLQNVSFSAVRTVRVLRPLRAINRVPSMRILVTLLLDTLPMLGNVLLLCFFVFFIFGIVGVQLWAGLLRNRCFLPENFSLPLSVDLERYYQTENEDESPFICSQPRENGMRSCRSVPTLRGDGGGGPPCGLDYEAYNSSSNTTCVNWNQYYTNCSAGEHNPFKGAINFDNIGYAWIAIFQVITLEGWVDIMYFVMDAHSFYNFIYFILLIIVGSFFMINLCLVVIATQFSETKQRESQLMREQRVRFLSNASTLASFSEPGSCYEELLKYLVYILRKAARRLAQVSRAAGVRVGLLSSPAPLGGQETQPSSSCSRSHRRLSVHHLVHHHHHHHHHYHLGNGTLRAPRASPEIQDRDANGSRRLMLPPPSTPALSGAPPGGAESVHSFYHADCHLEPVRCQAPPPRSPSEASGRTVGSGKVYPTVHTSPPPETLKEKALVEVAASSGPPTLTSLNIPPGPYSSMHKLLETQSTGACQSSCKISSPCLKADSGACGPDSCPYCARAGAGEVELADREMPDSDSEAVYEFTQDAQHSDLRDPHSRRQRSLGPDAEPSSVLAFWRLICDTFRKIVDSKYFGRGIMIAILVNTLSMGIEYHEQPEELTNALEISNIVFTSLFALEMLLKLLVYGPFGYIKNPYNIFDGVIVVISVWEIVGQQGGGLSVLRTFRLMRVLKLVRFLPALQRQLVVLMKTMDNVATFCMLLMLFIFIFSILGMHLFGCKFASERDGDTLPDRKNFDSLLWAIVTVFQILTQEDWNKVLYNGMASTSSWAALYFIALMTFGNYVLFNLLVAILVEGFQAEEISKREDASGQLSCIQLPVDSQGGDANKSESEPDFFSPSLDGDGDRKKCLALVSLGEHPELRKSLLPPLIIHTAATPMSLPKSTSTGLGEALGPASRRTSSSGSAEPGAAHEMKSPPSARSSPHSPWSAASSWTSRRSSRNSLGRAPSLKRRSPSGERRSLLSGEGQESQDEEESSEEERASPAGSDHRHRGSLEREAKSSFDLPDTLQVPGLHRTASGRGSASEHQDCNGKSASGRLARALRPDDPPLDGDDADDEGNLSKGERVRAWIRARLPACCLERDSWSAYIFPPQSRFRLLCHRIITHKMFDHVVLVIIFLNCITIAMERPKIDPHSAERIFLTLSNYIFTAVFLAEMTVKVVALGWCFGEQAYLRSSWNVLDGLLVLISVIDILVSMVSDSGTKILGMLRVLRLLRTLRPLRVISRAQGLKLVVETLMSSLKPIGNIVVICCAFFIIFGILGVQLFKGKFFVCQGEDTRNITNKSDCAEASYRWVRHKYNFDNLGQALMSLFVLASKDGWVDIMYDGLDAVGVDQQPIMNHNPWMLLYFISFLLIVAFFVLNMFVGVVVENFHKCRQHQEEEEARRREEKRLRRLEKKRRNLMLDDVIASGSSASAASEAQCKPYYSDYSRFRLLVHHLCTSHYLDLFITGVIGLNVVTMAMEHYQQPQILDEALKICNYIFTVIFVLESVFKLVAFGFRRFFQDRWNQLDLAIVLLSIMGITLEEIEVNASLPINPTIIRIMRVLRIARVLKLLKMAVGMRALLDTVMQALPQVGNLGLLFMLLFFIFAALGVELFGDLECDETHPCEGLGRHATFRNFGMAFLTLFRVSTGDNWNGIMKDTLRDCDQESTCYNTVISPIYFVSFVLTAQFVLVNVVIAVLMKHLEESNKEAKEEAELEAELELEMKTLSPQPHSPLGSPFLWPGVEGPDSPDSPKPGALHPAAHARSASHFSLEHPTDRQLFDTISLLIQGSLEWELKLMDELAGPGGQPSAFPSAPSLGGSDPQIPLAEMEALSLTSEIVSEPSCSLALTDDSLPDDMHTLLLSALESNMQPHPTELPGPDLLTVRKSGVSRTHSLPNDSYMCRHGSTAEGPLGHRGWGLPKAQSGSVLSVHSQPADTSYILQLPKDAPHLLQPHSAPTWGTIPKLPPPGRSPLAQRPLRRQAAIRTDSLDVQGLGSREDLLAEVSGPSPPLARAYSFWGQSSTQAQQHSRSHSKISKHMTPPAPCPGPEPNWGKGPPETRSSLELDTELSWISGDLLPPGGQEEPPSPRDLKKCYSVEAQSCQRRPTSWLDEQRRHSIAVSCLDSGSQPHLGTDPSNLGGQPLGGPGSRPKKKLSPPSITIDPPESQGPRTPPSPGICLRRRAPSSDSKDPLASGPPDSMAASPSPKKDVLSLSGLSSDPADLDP

On to “spectrin αII (SPTAN1), tsA-201 cells, Q13813 1-2472”, for which the cell surface expression of Cav3.1 (surface biotinylation, tsA-201 cells) in the presence of the cell permeant Tat-Cav3.1-CT disruptor peptide against a scrambled Tat peptide stood at 40%.

The values above are taken from article PMC5930937.
